For experiment [1], the target named is CD3εδ-ECD-his (CD3εδ异二聚体蛋白) (UniProt P07766). Put plainly: ELISA, CD3εδ-ECD-his coated at 1 ug/mL (Table 20).
The target is the same in experiment [2]. Nature of the experiment: ELISA, CD3εδ-ECD-his coated at 1 ug/mL, anti-human IgG Fab HRP (Table 15).

B1: SP34 (humanized anti-CD3 monoclonal antibody) (antibody, human IgG1, kappa, V domains shown)
VH: EVQLVESGGGLVQPGGSLRLSCAASGFTFNTYAMNWVRQAPGKGLEWVARIRSKYNNYATYYADSVKDRFTISRDDSKNTLYLQMNSLRAEDTAVYYCVRHGNFGNSYVSWFAYWGQGTLVTVSS
VL: QAVVTQEPSLTVSPGGTVTLTCRSSTGAVTTSNYANWVQQKPGQAPRGLIGGTNKRAPGVPARFSGSLLGGKAALTLSGAQPEDEAEYYCALWYSNLWVFGQGTKVEIKR
Turning to B1, the values for the EC50 in experiment [1] and in experiment [2] were 0.118 nM and 0.13 nM, respectively.

Values taken from CN116284426A.
